Laboratory results: PMC9529347

Biological target: SARS-CoV-1 RBD monomer (N321-P513) with C-terminal AVI-tag and 6xHIS-tag (SARS-CoV-1)
Assay: SPR

Sequence of soluble human ACE2, truncated ectodomain (S19-D615), C-terminal 6xHIS-tag (Q9BYF1 19-615): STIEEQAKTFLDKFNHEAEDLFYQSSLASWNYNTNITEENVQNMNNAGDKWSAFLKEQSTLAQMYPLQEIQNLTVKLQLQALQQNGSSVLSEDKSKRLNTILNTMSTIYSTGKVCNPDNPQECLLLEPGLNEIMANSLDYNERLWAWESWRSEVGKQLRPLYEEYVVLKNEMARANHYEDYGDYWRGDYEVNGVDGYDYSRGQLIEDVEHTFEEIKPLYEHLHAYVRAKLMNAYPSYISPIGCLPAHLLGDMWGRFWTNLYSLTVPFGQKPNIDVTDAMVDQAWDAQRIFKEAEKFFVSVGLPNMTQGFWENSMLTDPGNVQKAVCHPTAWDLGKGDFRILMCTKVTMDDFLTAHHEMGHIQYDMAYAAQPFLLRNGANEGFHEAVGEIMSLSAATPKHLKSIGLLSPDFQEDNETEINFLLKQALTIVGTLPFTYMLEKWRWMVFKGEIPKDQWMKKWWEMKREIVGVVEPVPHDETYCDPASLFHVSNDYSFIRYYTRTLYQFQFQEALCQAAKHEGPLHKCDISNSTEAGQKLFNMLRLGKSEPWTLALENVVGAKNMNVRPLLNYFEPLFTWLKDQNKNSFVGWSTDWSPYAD

Question: How did the Kd turn out when “soluble human ACE2, truncated ectodomain (S19-D615), C-terminal 6xHIS-tag (from UniProt Q9BYF1 19-615) (receptor)” was run?
Answer: Its Kd is 253 nM.
